Data on two substances can be found in patent US20080305123A1.

Experiment [1] addresses PsaA receptor on Detroit 562 human nasopharyngeal epithelial cells (human). Description: competition of PsaA-coated bead adherence to Detroit 562 cells by P4 in solution (second of the three doses, printed 100 µg).
For experiment [2] the target is unchanged. In words: coated fluorospheres on Detroit 562 cells, 1640±210 beads/well.
Experiment [3] shares this target. In words: coated fluospheres at 1:50 dilution on Detroit 562 cells.
For experiment [4] the target is unchanged. In words: homologous competitor P4 in solution against P4-coated fluospheres on Detroit 562 cells.
For experiment [5] the target is unchanged. In words: competition of PsaA-coated bead adherence to Detroit 562 cells by P4 in solution.
Experiment [6] shares this target. In words: competitor P4 in solution against P4-coated beads on Detroit 562 cells.
Experiment [7] has the same target. In words: 2,600 fluospheres/well on Detroit 562 cells, day 1 after labeling.
For experiment [8] the target is unchanged. In words: cold chase with non-fluorescent PsaA-coated spheres against PsaA-coated fluospheres on Detroit 562 cells.
Experiment [9] has the same target. In words: adherence of unsaturated rPsaA fluospheres to Detroit 562 cells with P3 peptide added.
The target is the same in experiment [10]. Description: 2,600 fluospheres/well on Detroit 562 cells, day 60 after labeling.
Experiment [11] shares this target. In words: time course on Detroit 562 cells, n=6, 180 min.
For experiment [12] the target is unchanged. In words: time course on Detroit 562 cells, n=6, 140 min.
For experiment [13] the target is unchanged. Description: time course on Detroit 562 cells, n=6, 20 min.

“And” between values parts separate entries of the source, which are not always exact repeats. Equal values may be shown once. Some results are limits rather than exact numbers.

Turning to “P4 peptide (PsaA amino acid residues 251 to 278 with DD changed to KR)”, the % reduction in FU in experiment [1] was 68%; in [5], 23%. Also, the adherence (mean FU) in experiment [2] worked out at 19300 FU. In experiment [3], this substance showed an adherence signal (FU) of more than 100000 FU. In addition, the percent reduction in adherence was 89.4% and 87.6% and 88.9% in [4]; 89.4% and 87.6% and 88.9% in experiment [6].

Regarding “recombinant pneumococcal surface adhesin A (rPsaA) of Streptococcus pneumoniae (from UniProt P0A4G2 20-309) (ligand)”, the mean adherence (FU) in experiment [7] amounted to 30100 FU; in [10], 30600 FU. In addition, the % inhibition of adherence of PsaA-coated fluospheres in experiment [8] is less than 31%. This substance returned an adherence signal (FU) in experiment [3] of more than 100000 FU. Moreover, the fold enhancement of binding by P3 peptide in experiment [9] is less than 2.5 fold. Also, the mean adherence signal (FU) amounted to 17500 FU in experiment [11], 16600 FU in experiment [12] and 2320 FU in experiment [13].
